{
  "source": "the supplement of paper PMC10567573",
  "parents": {"B1": {"name": "TNNI2 (parent)", "chain": "DWRKNIEEKSGMEGRKKMFESES"}},
  "data": [
    {"variants_of": "B1", "test": "protein stability index of a GFP-peptide fusion (GPS, HEK-293T) (PSI 1-6); higher = more stable", "settings": "c terminus: native", "values": [
      {"variant": "DWRKNIEEKSGMEGRPKMFESES", "protein stability index": 2.72},
      {"variant": "DWRKNIEEKSGMEGRRKMFESES", "protein stability index": 2.3},
      {"variant": "DWRKNIEEKSGMEGRCKMFESES", "protein stability index": 2.19},
      {"variant": "DWRKNIEEKSGMEGRYKMFESES", "protein stability index": 1.24},
      {"variant": "DWRKNIEEKSGMEGRNKMFESES", "protein stability index": 1.95},
      {"variant": "DWRKNIEEKSGMEGRVKMFESES", "protein stability index": 2.32},
      {"variant": "DWRKNIEEKSGMEGRHKMFESES", "protein stability index": 1.85},
      {"variant": "DWRKNIEEKSGMEGRGKMFESES", "protein stability index": 1.78},
      {"variant": "DWRKNIEEKSGMEGRMKMFESES", "protein stability index": 1.92},
      {"variant": "DWRKNIEEKSGMEGRWKMFESES", "protein stability index": 1.85},
      {"variant": "DWRKNIEEKSGMEGRIKMFESES", "protein stability index": 1.83},
      {"variant": "DWRKNIEEKSGMEGRLKMFESES", "protein stability index": 2.85},
      {"variant": "DWRKNIEEKSGMEGRSKMFESES", "protein stability index": 1.98},
      {"variant": "DWRKNIEEKSGMEGRQKMFESES", "protein stability index": 2.19},
      {"variant": "DWRKNIEEKSGMEGREKMFESES", "protein stability index": 2.39},
      {"variant": "DWRKNIEEKSGMEGRDKMFESES", "protein stability index": 3.19},
      {"variant": "DWRKNIEEKSGMEGRTKMFESES", "protein stability index": 2.07},
      {"variant": "DWRKNIEEKSGMEIRKKMFESES", "protein stability index": 1.6},
      {"variant": "DWRKNIEEKSGMEDRKKMFESES", "protein stability index": 1.67},
      {"variant": "DWRKNIEEKSGMEARKKMFESES", "protein stability index": 1.43},
      {"variant": "DWRKNIEEKSGMESRKKMFESES", "protein stability index": 1.63},
      {"variant": "DWRKNIEEKSGMEVRKKMFESES", "protein stability index": 1.08},
      {"variant": "DWRKNIEEKSGMEFRKKMFESES", "protein stability index": 1.93},
      {"variant": "DWRKNIEEKSGMENRKKMFESES", "protein stability index": 2.22},
      {"variant": "DWRKNIEEKSGMEMRKKMFESES", "protein stability index": 1.99},
      {"variant": "DWRKNIEEKSGMECRKKMFESES", "protein stability index": 2.56},
      {"variant": "DWRKNIEEKSGMEKRKKMFESES", "protein stability index": 1.31},
      {"variant": "DWRKNIEEKSGMETRKKMFESES", "protein stability index": 1.41},
      {"variant": "DWRKNIEEKSGMERRKKMFESES", "protein stability index": 2.55},
      {"variant": "DWRKNIEEKSGMEWRKKMFESES", "protein stability index": 2.78},
      {"variant": "DWRKNIEEKSGMEHRKKMFESES", "protein stability index": 1.94},
      {"variant": "DWRKNIEEKSGMEPRKKMFESES", "protein stability index": 2.56},
      {"variant": "DWRKNIEEKSGMEERKKMFESES", "protein stability index": 1.38},
      {"variant": "DWRKNIEEKSGMEGHKKMFESES", "protein stability index": 2.15},
      {"variant": "DWRKNIEEKSGMEGNKKMFESES", "protein stability index": 2.77},
      {"variant": "DWRKNIEEKSGMEGIKKMFESES", "protein stability index": 1.71},
      {"variant": "DWRKNIEEKSGMEGLKKMFESES", "protein stability index": 2.56},
      {"variant": "DWRKNIEEKSGMEGEKKMFESES", "protein stability index": 2.8},
      {"variant": "DWRKNIEEKSGMEGYKKMFESES", "protein stability index": 2.15},
      {"variant": "DWRKNIEEKSGMEGMKKMFESES", "protein stability index": 1.51},
      {"variant": "DWRKNIEEKSGMEGAKKMFESES", "protein stability index": 2.59},
      {"variant": "DWRKNIEEKSGMEGGKKMFESES", "protein stability index": 1.76},
      {"variant": "DWRKNIEEKSGMEGDKKMFESES", "protein stability index": 2.44},
      {"variant": "DWRKNIEEKSGMEGQKKMFESES", "protein stability index": 3.12},
      {"variant": "DWRKNIEEKSGMEGKKKMFESES", "protein stability index": 3.5},
      {"variant": "DWRKNIEEKSGMEGPKKMFESES", "protein stability index": 2.98},
      {"variant": "DWRKNIEEKSGMEGTKKMFESES", "protein stability index": 2.7},
      {"variant": "DWRKNIEEKSGMEGFKKMFESES", "protein stability index": 1.62},
      {"variant": "DWRKNIEIKSGMEGRKKMFESES", "protein stability index": 2.41},
      {"variant": "DWRKNIENKSGMEGRKKMFESES", "protein stability index": 3.61},
      {"variant": "DWRKNIEAKSGMEGRKKMFESES", "protein stability index": 2.2},
      {"variant": "DWRKNIEWKSGMEGRKKMFESES", "protein stability index": 1.52},
      {"variant": "DWRKNIEPKSGMEGRKKMFESES", "protein stability index": 3.03},
      {"variant": "DWRKNIEYKSGMEGRKKMFESES", "protein stability index": 2.16},
      {"variant": "DWRKNIERKSGMEGRKKMFESES", "protein stability index": 1.84},
      {"variant": "DWRKNIEMKSGMEGRKKMFESES", "protein stability index": 1.5},
      {"variant": "DWRKNIELKSGMEGRKKMFESES", "protein stability index": 2.47},
      {"variant": "DWRKNIEHKSGMEGRKKMFESES", "protein stability index": 2.09},
      {"variant": "DWRKNIECKSGMEGRKKMFESES", "protein stability index": 1.63},
      {"variant": "DWRKNIESKSGMEGRKKMFESES", "protein stability index": 1.99},
      {"variant": "DWRKNIEFKSGMEGRKKMFESES", "protein stability index": 2.06},
      {"variant": "DWRKNIEQKSGMEGRKKMFESES", "protein stability index": 2.17},
      {"variant": "DWRKNIEKKSGMEGRKKMFESES", "protein stability index": 2.74},
      {"variant": "DWRKNIEGKSGMEGRKKMFESES", "protein stability index": 2.06},
      {"variant": "DWRKNIEVKSGMEGRKKMFESES", "protein stability index": 2.66},
      {"variant": "DWRKNIETKSGMEGRKKMFESES", "protein stability index": 2.17},
      {"variant": "DWRKNIEEKSGMYGRKKMFESES", "protein stability index": 2.15},
      {"variant": "DWRKNIEEKSGMLGRKKMFESES", "protein stability index": 2.47},
      {"variant": "DWRKNIEEKSGMWGRKKMFESES", "protein stability index": 1.81},
      {"variant": "DWRKNIEEKSGMTGRKKMFESES", "protein stability index": 3.7},
      {"variant": "DWRKNIEEKSGMCGRKKMFESES", "protein stability index": 2.78},
      {"variant": "DWRKNIEEKSGMQGRKKMFESES", "protein stability index": 2.03},
      {"variant": "DWRKNIEEKSGMVGRKKMFESES", "protein stability index": 2.33},
      {"variant": "DWRKNIEEKSGMRGRKKMFESES", "protein stability index": 2.72},
      {"variant": "DWRKNIEEKSGMPGRKKMFESES", "protein stability index": 2.34},
      {"variant": "DWRKNIEEKSGMFGRKKMFESES", "protein stability index": 1.73},
      {"variant": "DWRKNIEEKSGMKGRKKMFESES", "protein stability index": 2.94},
      {"variant": "DWRKNIEEKSGMMGRKKMFESES", "protein stability index": 2.03},
      {"variant": "DWRKNIEEKSGMSGRKKMFESES", "protein stability index": 1.77},
      {"variant": "DWRKNIEEKSGMDGRKKMFESES", "protein stability index": 2.52},
      {"variant": "DWRKNIEEKSGMNGRKKMFESES", "protein stability index": 2.75},
      {"variant": "DWRKNIEEKSGMAGRKKMFESES", "protein stability index": 2.01},
      {"variant": "DWRKNIEEKSGMGGRKKMFESES", "protein stability index": 3.41},
      {"variant": "DWRKNIEEKSGMHGRKKMFESES", "protein stability index": 2.19},
      {"variant": "DWRKNIEEKQGMEGRKKMFESES", "protein stability index": 2.97},
      {"variant": "DWRKNIEEKAGMEGRKKMFESES", "protein stability index": 1.7},
      {"variant": "DWRKNIEEKNGMEGRKKMFESES", "protein stability index": 2.54},
      {"variant": "DWRKNIEEKKGMEGRKKMFESES", "protein stability index": 2.18},
      {"variant": "DWRKNIEEKGGMEGRKKMFESES", "protein stability index": 2.42},
      {"variant": "DWRKNIEEKVGMEGRKKMFESES", "protein stability index": 1.02},
      {"variant": "DWRKNIEEKPGMEGRKKMFESES", "protein stability index": 2.52},
      {"variant": "DWRKNIEEKEGMEGRKKMFESES", "protein stability index": 2.28},
      {"variant": "DWRKNIEEKMGMEGRKKMFESES", "protein stability index": 2.16},
      {"variant": "DWRKNIEEKRGMEGRKKMFESES", "protein stability index": 2.55},
      {"variant": "DWRKNIEEKYGMEGRKKMFESES", "protein stability index": 2.82},
      {"variant": "DWRKNIEEKLGMEGRKKMFESES", "protein stability index": 1.58},
      {"variant": "DWRKNIEEKIGMEGRKKMFESES", "protein stability index": 2.89}
    ]}
  ]
}
